The test system of data set [1] is mouse 3T3-L1 preadipocytes. The experiment in a line: 3T3-L1 preadipocyte differentiation (oil red O, qRT-PCR). The data set is classed as cell-based. As to conditions: for adipogenesis and lipogenesis in 3T3-L1 cells (oil red O): added to culture medium, 6 days of differentiation. The method, then:
FIG. 23 illustrates that arginine depletion by adding N-ABD094-rhArg (SEQ ID NO: 50) (rhArg), bovine arginase or native arginine deiminase (ADI) to the culture medium, or using arginine-free medium inhibited the differentiation of mouse 3T3-L1 preadipocytes into adipocytes. […] (*The culture medium contains 0.4 mM L-arginine and can be converted into 0.4 mM L-ornithine and 0.4 mM urea by arginase, or 0.4 mM L-citrulline by ADI.). Cells grown in culture medium without addition of arginine depleting agents or metabolic products of arginase/ADI served as the control. Lipids in cells were stained with oil red O at 6 days after exposure to specific differentiation-inducing factors added to the medium.
FIG. 24 illustrates that N-ABD094-rhArg (SEQ ID NO: 50) could suppress adipogenic and lipogenic genes in 3T3-L1 preadipocytes. Mouse 3T3-L1 preadipocytes were cultured for 6 days in medium supplemented with specific factors to induce differentiation into adipocytes (differentiated). Cells grown in medium without these factors remained undifferentiated. The medium was added with 2U/mL N-ABD094-rhArg (SEQ ID NO: 50) (rhArg). Cells grown in medium without the addition of N-ABD094-rhArg served as the control. The mRNA expression levels of several crucial (A) transcriptional regulators of adipogenesis, and (B) enzymes in lipogenic pathways were determined by real-time qRT-PCR, and expressed relative to the undifferentiated (control) group, which is set as 1. *P<0.05, one-way ANOVA followed by Fisher's LSD. Data are expressed as mean±SEM, n=3 for each group.
FIG. 25 illustrates the response of 3T3-L1 preadipocytes to various concentrations of arginine Mouse 3T3-L1 preadipocytes were cultured in arginine-free medium with or without addition of varying concentrations of L-arginine for 6 days. Cells cultured in normal arginine-containing medium supplemented with differentiation inducing factors served as the positive (+ve) control of differentiation, while cells cultured in normal arginine-containing medium without supplementation of differentiation inducing factors served as the negative (−Ve) control of differentiation. One group of cells was cultured in normal arginine-containing medium supplemented with differentiation inducing factors and treated with 5U/mL N-ABD094-rhArg (SEQ ID NO: 50) (rhArg) to inhibit differentiation. (A) Cells were stained for lipids with oil red O, and staining intensity was quantified by measuring optical density, which is expressed as the percentage against the +ve control group. (B) The mRNA levels of several crucial lipogenesis related genes are expressed relative to cells cultured in arginine-free medium, which is set as 1. Data are expressed as mean±SEM, n=3 for each group.
To test the effect of N-ABD094-rhArg (SEQ ID NO: 50) on fat cells, mouse 3T3-L1 preadipocytes were used, which are commonly employed as cell-based model for studying adipogenesis [Green and Meuth, 1974, Cell 3:127-133].
Background: Quantitative PCR measures a nucleic acid by following its amplification.

The next data set has as its system circulating arginine. To be noted: i.p., cited from earlier work.
Data set [2] in a line: Arginase specific activity, DAMO colorimetric assay. The data set is classed as biochemical. As to conditions: 37° C., pH 7.4, purified preparation. An excerpt: The arginase activity of the fusion proteins described herein can be substantially the same, lower, or higher than the activity of the arginase polypeptide from which it is derived. One unit of arginase activity is defined as the amount of fusion protein [e.g., BHA (SEQ ID NO; 75), BAH (SEQ ID NO: 76), N-ABD-rhArg (SEQ ID NO: 49), or N-ABD094-rhArg (SEQ ID NO: 50)] or arginase [e.g., BCA (SEQ ID NO: 70)] that catalyzes the production of 1 μmol of urea per min under standard assay conditions. The specific activity of the enzyme is expressed as activity units per mg of protein. Under standard diacetylmonoxime (DAMO) assay conditions (37° C., pH 7.4), the fusion proteins can have a specific activity that is about 5%, about 10%, about 15%, about 20%, about 25% about 30%, about 35% or about 40% lower or higher than the corresponding arginase polypeptide which it incorporates. In certain embodiments, fusion proteins can have a specific activity that is about 5% to about 40%, about 10% to about 40%, about 10% to about 35%, about 10% to about 30%, about 20% to about 30%, about 20% to about 35%, about 15% to about 30%, about 15% to about 25%, or about 10% to about 20% lower or higher than the corresponding arginase polypeptide which it incorporates.
One unit of enzyme activity is defined as the amount of enzyme (BCA, BHA or BAH) that catalyzes the production of 1 μmol urea per min under standard assay conditions. Specific activity of the enzyme is expressed as activity units per mg of protein.
Briefly, a serial dilution of 0.3 mL BCA solutions together with 0.15 mL water and 720 mM arginine substrate at pH 7.4 was pre-incubated separately at 37° C. for 10 min. The enzymatic reaction was carried out by adding 0.3 mL arginine substrate to the pre-incubated enzyme solutions. […]
The urea formed from the above reaction was quantified using the DAMO direct colorimetric method described by World Health Organization (WHO). […] The absorbance at 540 nm was measured. […]

Data set [3] has as its system 4T1 breast cancer allograft. The experiment in a line: 4T1 breast cancer allograft study. In kind it is in vivo, female nude mice. To be noted: 500U once per week. The method, then: In another 4T1 breast cancer allograft study, female nude mice (5-6 weeks of age) were used. They were kept in groups of five per cage and provided food and water ad libitum. Cells of 4T1 breast cancer ([…]) were injected subcultuaneously into the right flank of the mice. […] There were one control group (n=8) and three experimental groups, including 500U PEGylated His-rhArg (SEQ ID NO: 101) (n=8), 500U N-ABD-rhArg (SEQ ID NO: 49) (n=6) and 250U N-ABD-rhArg (SEQ ID NO: 49) (n=8). Mice in the control group were injected with 1×PBS weekly. For the 500U ABD-rhArg group and the 250U ABD-rhArg group, mice were injected with 500U and 250U ABD-rhArg once a week, respectively; one group was injected with 500U PEG-rhArg once per week. The mice were sacrificed after 24 days of inoculation (i.e. 14 days after starting of experiment) because of necrosis of tumor in PBS control group. After sacrificing, the mice were dissected. Tumors were collected from the mice and measured their weight. Lungs were also collected and washed with 1×PBS. The lungs were fixed in Bouin's solution overnight and washed with 1×PBS after fixation. Lung metastatic nodules were counted.

Data set [4] in a line: DIO mice treated with PEGylated His-rhArg. The data set is classed as in vivo, C57BL/6J male mice. The method, then:
Production of PEGylated His-rhArg (SEQ ID NO: 101) is described in Example 30. C57BL/6J male mice with pre-existing diet-induced obesity (DIO) received i.p. injection of 300U PEGylated His-rhArg [SEQ ID NO: 101], or saline as vehicle control, at 7-day intervals for 5 weeks, while continuously being fed a HFD. […] Regular monitoring of plasma arginine concentrations confirmed that arginine remained at levels below the detection limit of the Biochrom 30 Amino Acid Analyzer (3 μM) throughout the study.

Where “and” joins values, the source holds several entries; their conditions need not be identical. Equal values may be shown once.

As to `NC(=O)NCCC[C@H](N)C(=O)O` [L-citrulline], the “adipogenesis and lipogenesis in 3T3-L1 cells (oil red O)” value (“adipogenesis and lipogenesis” below) in data set [1] is “could not inhibit”.

Turning to `N=C(N)NCCC[C@H](N)C(=O)O` [L-arginine], the “threshold concentration for activation of Cebpa, Pparg and Scd1” value in data set [1] (arginine-free medium supplemented with L-arginine, 6 days) was in the range of 10 to 40 µM.

On to `NC(N)=O` [urea], for which the “adipogenesis and lipogenesis” value in data set [1] is “could not inhibit”.

In the case of `NCCC[C@H](N)C(=O)O` [L-ornithine], in data set [1], the “adipogenesis and lipogenesis” value is given as “could not inhibit”.

B1: PEGylated rhArg (conjugate, UniProt P05089 1-322, looked up)
Arginase-1: MSAKSRTIGIIGAPFSKGQPRGGVEEGPTVLRKAGLLEKLKEQECDVKDYGDLPFADIPNDSPFQIVKNPRSVGKASEQLAGKVAEVKKNGRISLVLGGDHSLAIGSISGHARVHPDLGVIWVDAHTDINTPLTTTSGNLHGQPVSFLLKELKGKIPDVPGFSWVTPCISAKDIVYIGLRDVDPGEHYILKTLGIKYFSMTEVDRLGIGKVMEETLSYLLGRKKRPIHLSFDVDGLDPSFTPATGTPVVGGLTYREGLYITEEIYKTGLLSGLDIMEVNPSLGKTPEEVTRTVNTAVAITLACFGLAREGNHKPIDYLNPPK
modifications: PEGylated
With B1, in the data set on circulating arginine (1,500 U per rat (6 U/g)), the “time circulating arginine below detection limit (3 μM)” value is listed as 6 days.

B2: native rhArg: native recombinant human arginase (Tsui et al.) (protein, UniProt P05089 1-322, looked up)
Arginase-1: MSAKSRTIGIIGAPFSKGQPRGGVEEGPTVLRKAGLLEKLKEQECDVKDYGDLPFADIPNDSPFQIVKNPRSVGKASEQLAGKVAEVKKNGRISLVLGGDHSLAIGSISGHARVHPDLGVIWVDAHTDINTPLTTTSGNLHGQPVSFLLKELKGKIPDVPGFSWVTPCISAKDIVYIGLRDVDPGEHYILKTLGIKYFSMTEVDRLGIGKVMEETLSYLLGRKKRPIHLSFDVDGLDPSFTPATGTPVVGGLTYREGLYITEEIYKTGLLSGLDIMEVNPSLGKTPEEVTRTVNTAVAITLACFGLAREGNHKPIDYLNPPK
Consider B2, for which, in the data set with circulating arginine (7,500 U/rat), the “circulating arginine within 3 hour of injection” value was roughly 20 µM and the “time for arginine to return to basal level post-injection” value is roughly 2 days.

B3: PEGylated His-rhArg (conjugate)
chain: MHHHHHHMSAKSRTIGIIGAPFSKGQPRGGVEEGPTVLRKAGLLEKLKEQECDVKDYGDLPFADIPNDSPFQIVKNPRSVGKASEQLAGKVAEVKKNGRISLVLGGDHSLAIGSISGHARVHPDLGVIWVDAHTDINTPLTTTSGNLHGQPVSFLLKELKGKIPDVPGFSWVTPCISAKDIVYIGLRDVDPGEHYILKTLGIKYFSMTEVDRLGIGKVMEETLSYLLGRKKRPIHLSFDVDGLDPSFTPATGTPVVGGLTYREGLYITEEIYKTGLLSGLDIMEVNPSLGKTPEEVTRTVNTAVAITLACFGLAREGNHKPIDYLNPPK
modifications: PEGylated; His-rhArg, Synthesized in Lab
In data set [2], B3 showed a Specific activity of 245 U/mg. Further, the Specific activity in data set [2] (listed as PEGylated His-rhArg batch 3) was 189 U/mg and 213 U/mg. In addition, in data set [3], the “growth of 4T1 solid tumor” value is recorded as “inhibited the growth of the aggressive 4T1 solid tumor significantly” and the “metastasis nodules from the lungs vs control group” value was “very significantly reduced”. The bodyweight after treatment in data set [4] (300U i.p. at 7-day intervals for 5 weeks, HFD continued) is listed as 30 g. In addition, the “weight of liver, kidney, pancreas and heart vs vehicle-treated DIO mice” value in data set [4] (300U weekly) was “significantly lower”. For the same molecule, the “weight of fat pad at visceral and subcutaneous depots” value in data set [4] (300U weekly, end of study) is “significantly reduced”. In addition, the “plasma arginine concentrations throughout the study” value in data set [4] (300U weekly, Biochrom 30 detection limit) was less than 3 µM. For the same molecule, in data set [4] (two weeks after treatment), the “fasting blood glucose levels vs vehicle-treated DIO mice” value was “lower” and the “insulin sensitivity (ITT) vs vehicle-treated DIO mice” value is listed as “significant increase”.

Values taken from US20200181597A1, “Composition and Application of Arginine-depleting Agents for Cancer, Obesity, Metabolic Disorders, and Related Complications and Comorbidities” (THE HONG KONG POLYTECHNIC UNIVERSITY, priority 2018, published 2020).
